Article PMC10663500, “High-throughput analysis system of interaction kinetics for data-driven antibody design” (Scientific Reports, 2023)

How the values were obtained:
[1] = molecular target: T1, human programmed cell death protein 1 (hPD-1) C93S (aa 24-167) (Homo sapiens, UniProt Q15116, C93S); assay: SPR; Carterra LSA; Fab from the ammonium sulfate precipitate of the culture supernatant immobilised on a NiHC200M chip; hPD-1 (1-1024 nM) or mPD-1-Fc (4-1024 nM) as analyte, fourfold dilution series, no regeneration; HBS-EP pH 7.4, 25 °C; medians over the spots of a construct, KD = koff/kon; settings: one partner purified
T1 construct: made as a fusion with a TEV site and human Fc; the Fc was cut off with TEV protease; source: Expi293F, purified (Protein A, TEV cleavage of Fc, SEC; monomer fractions); not shown: Fc (human), C-terminal, cleaved
How it was run: (§1)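 Fabs from Brevibacillus culture supernatants were ammonium sulfate-precipitated, redissolved in HBS-EP and captured in duplicate on a NiHC200M chip (Carterra LSA, 25 °C). Human PD-1 (1–1024 nM) or mouse PD-1-Fc (4–1024 nM) flowed as fourfold series without regeneration, with 10 min association and 5 min dissociation; unconfirmed binders were set to kon 10^3 […], koff 10^−2 s^−1. Rates came from kdka model fits (slow- or fast-dissociation settings, best fit); KD is koff/kon from per-construct medians.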

[2] = molecular target: T2, mouse programmed cell death protein 1 Fc fusion protein (mPD-1-Fc), mPD-1 C60S (aa 25-167) (Mus musculus, UniProt Q02242, stabilised); assay: as above; settings: one partner purified
T2 construct: not cleaved; source: Expi293F, purified (Protein A, SEC; dimeric fraction); not shown: Fc (human), C-terminal, kept
How it was run: as §1

T1 sequence (Q15116 24-167 C93S): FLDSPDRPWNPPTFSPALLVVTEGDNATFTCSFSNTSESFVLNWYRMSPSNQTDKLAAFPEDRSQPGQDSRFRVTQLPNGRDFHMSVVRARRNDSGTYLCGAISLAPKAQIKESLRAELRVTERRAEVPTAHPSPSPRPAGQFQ

B1: toripalimab Fab H.Q62A (Fab, V domains shown)
VH: QGQLVQSGAEVKKPGASVKVSCKASGYTFTDYEMHWVRQAPIHGLEWIGVIESETGGTAYNAKFKGRVTITADKSTSTAYMELSSLRSEDTAVYYCAREGITTVATTYYWYFDVWGQGTTVTVSS
VL: DVVMTQSPLSLPVTLGQPASISCRSSQSIVHSNGNTYLEWYLQKPGQSPQLLIYKVSNRFSGVPDRFSGSGSGTDFTLKISRVEAEDVGVYYCFQGSHVPLTFGQGTKLEIK
notes: heavy chain of Sm3 with this change; numbers count from the chain's first residue; as the light chain of Sm3; source: Brevibacillus, culture supernatant (ammonium sulfate precipitate); not shown: 6xHis, C-terminal, kept; 6xHN, C-terminal, kept
Kd [1]: < 0.00129 µM | koff [1]: < 1e-05 s⁻¹ | kon [1]: 7730 M⁻¹ s⁻¹ | Kd [2]: 0.153 µM | koff [2]: 0.00564 s⁻¹ | kon [2]: 37000 M⁻¹ s⁻¹

B2: toripalimab Fab H.T58Y (Fab, V domains shown)
VH: QGQLVQSGAEVKKPGASVKVSCKASGYTFTDYEMHWVRQAPIHGLEWIGVIESETGGYAYNQKFKGRVTITADKSTSTAYMELSSLRSEDTAVYYCAREGITTVATTYYWYFDVWGQGTTVTVSS
VL: DVVMTQSPLSLPVTLGQPASISCRSSQSIVHSNGNTYLEWYLQKPGQSPQLLIYKVSNRFSGVPDRFSGSGSGTDFTLKISRVEAEDVGVYYCFQGSHVPLTFGQGTKLEIK
notes: as for B1
Kd [1]: 0.00126 µM | koff [1]: 1.54e-05 s⁻¹ | kon [1]: 12300 M⁻¹ s⁻¹ | Kd [2]: 0.215 µM | koff [2]: 0.0107 s⁻¹ | kon [2]: 49600 M⁻¹ s⁻¹

B3: toripalimab Fab H.N61A (Fab, V domains shown)
VH: QGQLVQSGAEVKKPGASVKVSCKASGYTFTDYEMHWVRQAPIHGLEWIGVIESETGGTAYAQKFKGRVTITADKSTSTAYMELSSLRSEDTAVYYCAREGITTVATTYYWYFDVWGQGTTVTVSS
VL: DVVMTQSPLSLPVTLGQPASISCRSSQSIVHSNGNTYLEWYLQKPGQSPQLLIYKVSNRFSGVPDRFSGSGSGTDFTLKISRVEAEDVGVYYCFQGSHVPLTFGQGTKLEIK
notes: as for B1
Kd [1]: < 0.000355 µM | koff [1]: < 1e-05 s⁻¹ | kon [1]: 28100 M⁻¹ s⁻¹ | Kd [2]: 0.032 µM | koff [2]: 0.00141 s⁻¹ | kon [2]: 44100 M⁻¹ s⁻¹

B4: toripalimab Fab H.G56Y (Fab, V domains shown)
VH: QGQLVQSGAEVKKPGASVKVSCKASGYTFTDYEMHWVRQAPIHGLEWIGVIESETYGTAYNQKFKGRVTITADKSTSTAYMELSSLRSEDTAVYYCAREGITTVATTYYWYFDVWGQGTTVTVSS
VL: DVVMTQSPLSLPVTLGQPASISCRSSQSIVHSNGNTYLEWYLQKPGQSPQLLIYKVSNRFSGVPDRFSGSGSGTDFTLKISRVEAEDVGVYYCFQGSHVPLTFGQGTKLEIK
notes: as for B1
Kd [1]: < 0.0017 µM | koff [1]: < 1e-05 s⁻¹ | kon [1]: 5890 M⁻¹ s⁻¹ | Kd [2]: 0.502 µM | koff [2]: 0.0174 s⁻¹ | kon [2]: 34700 M⁻¹ s⁻¹

B5: toripalimab Fab H.K63A (Fab, V domains shown)
VH: QGQLVQSGAEVKKPGASVKVSCKASGYTFTDYEMHWVRQAPIHGLEWIGVIESETGGTAYNQAFKGRVTITADKSTSTAYMELSSLRSEDTAVYYCAREGITTVATTYYWYFDVWGQGTTVTVSS
VL: DVVMTQSPLSLPVTLGQPASISCRSSQSIVHSNGNTYLEWYLQKPGQSPQLLIYKVSNRFSGVPDRFSGSGSGTDFTLKISRVEAEDVGVYYCFQGSHVPLTFGQGTKLEIK
notes: as for B1
Kd [1]: < 0.000248 µM | koff [1]: < 1e-05 s⁻¹ | kon [1]: 40300 M⁻¹ s⁻¹ | Kd [2]: 0.0713 µM | koff [2]: 0.00524 s⁻¹ | kon [2]: 73600 M⁻¹ s⁻¹

B6: toripalimab Fab H.N61Y (Fab, V domains shown)
VH: QGQLVQSGAEVKKPGASVKVSCKASGYTFTDYEMHWVRQAPIHGLEWIGVIESETGGTAYYQKFKGRVTITADKSTSTAYMELSSLRSEDTAVYYCAREGITTVATTYYWYFDVWGQGTTVTVSS
VL: DVVMTQSPLSLPVTLGQPASISCRSSQSIVHSNGNTYLEWYLQKPGQSPQLLIYKVSNRFSGVPDRFSGSGSGTDFTLKISRVEAEDVGVYYCFQGSHVPLTFGQGTKLEIK
notes: as for B1
Kd [1]: < 0.000156 µM | koff [1]: < 1e-05 s⁻¹ | kon [1]: 64200 M⁻¹ s⁻¹ | Kd [2]: 0.147 µM | koff [2]: 0.00562 s⁻¹ | kon [2]: 38100 M⁻¹ s⁻¹

B7: toripalimab Fab H.G57Y (Fab, V domains shown)
VH: QGQLVQSGAEVKKPGASVKVSCKASGYTFTDYEMHWVRQAPIHGLEWIGVIESETGYTAYNQKFKGRVTITADKSTSTAYMELSSLRSEDTAVYYCAREGITTVATTYYWYFDVWGQGTTVTVSS
VL: DVVMTQSPLSLPVTLGQPASISCRSSQSIVHSNGNTYLEWYLQKPGQSPQLLIYKVSNRFSGVPDRFSGSGSGTDFTLKISRVEAEDVGVYYCFQGSHVPLTFGQGTKLEIK
notes: as for B1
Kd [1]: 0.00335 µM | koff [1]: 0.000138 s⁻¹ | kon [1]: 41100 M⁻¹ s⁻¹ | Kd [2]: 0.0903 µM | koff [2]: 0.00664 s⁻¹ | kon [2]: 73500 M⁻¹ s⁻¹

B8: toripalimab Fab H.Q62Y (Fab, V domains shown)
VH: QGQLVQSGAEVKKPGASVKVSCKASGYTFTDYEMHWVRQAPIHGLEWIGVIESETGGTAYNYKFKGRVTITADKSTSTAYMELSSLRSEDTAVYYCAREGITTVATTYYWYFDVWGQGTTVTVSS
VL: DVVMTQSPLSLPVTLGQPASISCRSSQSIVHSNGNTYLEWYLQKPGQSPQLLIYKVSNRFSGVPDRFSGSGSGTDFTLKISRVEAEDVGVYYCFQGSHVPLTFGQGTKLEIK
notes: as for B1
Kd [1]: < 0.00129 µM | koff [1]: < 1e-05 s⁻¹ | kon [1]: 7750 M⁻¹ s⁻¹ | Kd [2]: 0.186 µM | koff [2]: 0.00625 s⁻¹ | kon [2]: 33600 M⁻¹ s⁻¹
